The target in test [1] is T1, SCD1, released from the linker-cleaved SCD1-cyt b5-b5R fusions (mouse, UniProt P13516 1-355).
T1 construct: stearoyl-CoA desaturase-1 (SCD1), mouse, UniProt P13516; stands for the SCD1 chain of the ternary fusion of the full-length proteins and of the sample with soluble cyt b5 and b5R; surmised: linker residues are left after TEV cleavage; not shown: GFP, N-terminal, cleaved
T1 sequence (looked up): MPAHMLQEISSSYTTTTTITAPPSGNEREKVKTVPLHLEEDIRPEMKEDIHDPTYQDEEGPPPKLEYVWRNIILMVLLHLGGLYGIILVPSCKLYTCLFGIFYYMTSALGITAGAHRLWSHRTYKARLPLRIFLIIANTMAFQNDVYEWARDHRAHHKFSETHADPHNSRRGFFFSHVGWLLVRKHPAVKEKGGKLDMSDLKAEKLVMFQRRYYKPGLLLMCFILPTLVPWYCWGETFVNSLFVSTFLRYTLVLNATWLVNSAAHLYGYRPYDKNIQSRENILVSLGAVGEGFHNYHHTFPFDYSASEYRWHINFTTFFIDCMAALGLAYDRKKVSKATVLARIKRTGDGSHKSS
As to the kind of experiment: SEC; ternary fusion SCD1-cyt b5-b5R purified, linkers cleaved by TEV protease, Superdex 200 10/300 GL in 20 mM HEPES pH 7.5, 150 mM NaCl, 1 mM DDM; three proteins in the sample. Particulars: both partners purified.

Test [2] concerns the target T2, SCD1, released from the linker-cleaved SCD1-cyt b5 fusions (mouse, UniProt P13516 1-355).
T2 construct: stearoyl-CoA desaturase-1 (SCD1), mouse, UniProt P13516; stands for the SCD1 chain of the fusion with full-length cyt b5 (wild type and TM mutants) and of the fusion with the soluble domain of cyt b5; the GFP tag stood at the C-terminus of the fusion; surmised: ENLYFQ is left at the C-terminus after cleavage
T2 sequence (looked up): T1 sequence (looked up)
As to the kind of experiment: SEC; binary fusion protein purified, linker cleaved by TEV protease, Superdex 200 10/300 GL in 20 mM HEPES pH 7.5, 150 mM NaCl, 1 mM DDM; elution compared with the tethered fusion. As to conditions: both partners purified.

From paper PMC9468158, “Transmembrane helices mediate the formation of a stable ternary complex of b5R, cyt b5, and SCD1” (Communications Biology, 2022) come the findings set out here.

B1: full-length b5R, released from the linker-cleaved SCD1-cyt b5-b5R fusion (enzyme, mouse, UniProt Q9DCN2 1-301, looked up)
chain: MGAQLSTLSHVVLSPVWFIYSLFMKLFQRSTPAITLENPDIKYPLRLIDKEVISPDTRRFRFALPSPQHILGLPIGQHIYLSTRIDGNLVIRPYTPVSSDDDKGFVDLVVKVYFKDTHPKFPAGGKMSQYLENMKIGDTIEFRGPNGLLVYQGKGKFAIRADKKSNPVVRTVKSVGMIAGGTGITPMLQVIRAVLKDPNDHTVCYLLFANQSEKDILLRPELEELRNEHSARFKLWYTVDKAPDAWDYSQGFVNEEMIRDHLPTPGEEPLILMCGPPPMIQFACLPNLERVGHPKERCFTF
notes: no extra residue after the C-terminus of b5R; surmised: a G is left at the N-terminus after TEV cleavage
As for B1, the binding result in test [1] is “binds”.

B2: full-length cyt b5, released from the linker-cleaved SCD1-cyt b5 fusion (natural protein, mouse, UniProt P56395 1-134, looked up)
chain: MAGQSDKDVKYYTLEEIQKHKDSKSTWVILHHKVYDLTKFLEEHPGGEEVLREQAGGDATENFEDVGHSTDARELSKTYIIGELHPDDRSKIAKPSDTLITTVESNSSWWTNWVIPAISALAVALMYRLYMAED
notes: cytochrome b5, mouse, UniProt P56395; surmised: G at the N-terminus and ENLYFQ at the C-terminus are left after TEV cleavage; not shown: GFP, C-terminal, cleaved
On to B2, for which the binding result in test [2] is listed as “binds”.

B3: full-length cyt b5, released from the linker-cleaved SCD1-cyt b5-b5R fusion (natural protein, mouse, UniProt P56395 1-134, looked up)
chain: B2 chain
notes: cytochrome b5, mouse, UniProt P56395; surmised: linker residues are left after TEV cleavage
Turning to B3, the binding result in test [1] is recorded as “binds”.
